Measurements as given in PMC11098746 (2024).

T1: ADP325
T1 chain: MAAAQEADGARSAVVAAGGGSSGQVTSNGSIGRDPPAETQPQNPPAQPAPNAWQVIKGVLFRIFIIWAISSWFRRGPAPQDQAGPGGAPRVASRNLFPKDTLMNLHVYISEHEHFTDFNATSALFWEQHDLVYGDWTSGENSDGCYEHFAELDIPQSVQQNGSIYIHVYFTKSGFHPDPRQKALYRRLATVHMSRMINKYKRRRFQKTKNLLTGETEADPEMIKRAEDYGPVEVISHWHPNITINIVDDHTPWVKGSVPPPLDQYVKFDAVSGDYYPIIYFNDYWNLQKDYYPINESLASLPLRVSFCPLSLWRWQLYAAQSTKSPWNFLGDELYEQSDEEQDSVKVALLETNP

T2: ADP285
T2 chain: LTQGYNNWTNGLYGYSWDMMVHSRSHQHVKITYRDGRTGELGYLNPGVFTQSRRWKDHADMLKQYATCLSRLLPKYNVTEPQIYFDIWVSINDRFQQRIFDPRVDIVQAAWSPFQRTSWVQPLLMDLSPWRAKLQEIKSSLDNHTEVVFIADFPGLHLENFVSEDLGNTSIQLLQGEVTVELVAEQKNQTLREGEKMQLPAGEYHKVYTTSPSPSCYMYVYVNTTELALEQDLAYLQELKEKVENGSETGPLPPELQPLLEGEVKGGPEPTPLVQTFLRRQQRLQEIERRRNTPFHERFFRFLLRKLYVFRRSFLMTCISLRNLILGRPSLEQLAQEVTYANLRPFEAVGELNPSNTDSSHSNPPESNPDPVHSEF

T3: ADP360
T3 chain: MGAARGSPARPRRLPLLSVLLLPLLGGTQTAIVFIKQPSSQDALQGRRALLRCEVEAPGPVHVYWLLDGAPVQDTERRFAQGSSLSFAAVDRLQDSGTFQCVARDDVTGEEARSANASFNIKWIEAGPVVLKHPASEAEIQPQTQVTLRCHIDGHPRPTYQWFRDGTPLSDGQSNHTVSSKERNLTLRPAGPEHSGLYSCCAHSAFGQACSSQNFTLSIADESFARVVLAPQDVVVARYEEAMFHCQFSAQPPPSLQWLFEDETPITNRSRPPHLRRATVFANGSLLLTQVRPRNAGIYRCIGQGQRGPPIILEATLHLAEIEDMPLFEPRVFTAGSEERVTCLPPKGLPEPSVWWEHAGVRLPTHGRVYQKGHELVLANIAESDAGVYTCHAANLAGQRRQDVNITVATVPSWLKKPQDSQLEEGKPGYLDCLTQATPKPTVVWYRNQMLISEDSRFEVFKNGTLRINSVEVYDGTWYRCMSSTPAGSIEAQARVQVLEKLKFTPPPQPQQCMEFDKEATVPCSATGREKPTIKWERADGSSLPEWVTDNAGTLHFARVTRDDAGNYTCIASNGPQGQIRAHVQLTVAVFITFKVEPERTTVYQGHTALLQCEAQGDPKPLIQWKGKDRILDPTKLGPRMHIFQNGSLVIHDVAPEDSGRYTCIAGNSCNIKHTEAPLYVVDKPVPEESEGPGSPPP

T4: ADP103
T4 chain: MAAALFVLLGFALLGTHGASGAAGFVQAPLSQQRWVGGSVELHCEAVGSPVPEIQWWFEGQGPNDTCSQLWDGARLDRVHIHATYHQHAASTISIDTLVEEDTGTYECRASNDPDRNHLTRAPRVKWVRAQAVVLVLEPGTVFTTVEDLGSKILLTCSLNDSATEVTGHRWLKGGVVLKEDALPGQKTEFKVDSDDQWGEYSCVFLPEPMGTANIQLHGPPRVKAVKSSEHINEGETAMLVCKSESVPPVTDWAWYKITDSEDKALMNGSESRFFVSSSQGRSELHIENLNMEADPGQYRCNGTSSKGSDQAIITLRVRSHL

T5: ADP101
T5 chain: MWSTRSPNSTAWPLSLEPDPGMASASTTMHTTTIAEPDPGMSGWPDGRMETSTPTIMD

T6: ADP353
T6 chain: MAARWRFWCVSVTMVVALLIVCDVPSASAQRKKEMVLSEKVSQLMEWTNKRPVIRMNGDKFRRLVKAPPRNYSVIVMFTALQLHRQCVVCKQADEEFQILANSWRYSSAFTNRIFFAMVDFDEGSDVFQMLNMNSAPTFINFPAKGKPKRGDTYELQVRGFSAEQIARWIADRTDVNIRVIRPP


Assays:
Assay in all cases: AVEXIS screen signal:noise (double-corrected)
ADP325 = molecular target: T1, ADP325
ADP285 = molecular target: T2, ADP285
ADP360 = molecular target: T3, ADP360
ADP103 = molecular target: T4, ADP103
ADP101 = molecular target: T5, ADP101
ADP353 = molecular target: T6, ADP353

| Binder | binding score (ADP325) | binding score (ADP285) | binding score (ADP360) | binding score (ADP103) | binding score (ADP101) | binding score (ADP353) |
| --- | --- | --- | --- | --- | --- | --- |
| ADP222 (protein, bait human Fc-tagged dimer; N-glycosylation sequons mutated in Plasmodium baits) NVVAPKSAEAVHTLTAKLDTENKAHQKYIDIINGVFSENMENFVFSITTSNGFTCSINKLDVIFDNKVTGMQKVFSDENVQYIKEASLEFKNNLLEYMKGVMPSENDFSNVRKEFQKVCVKYFSELRRKFFQIYRDPNNKNQNEDNVDNHMNIEEISQEFFSGFNPFGTMKIRKEQNPDLSQKDSLILNENNNDALTSADQKNNNMVPMENRAFSYSQQSSHVVSFDGHDEHVEQQEQHSGDNTQEDKDQLMDLPFNKDKVFSTFLKNVALLIEGNCAEAQQQAQEQTQEQTEEQEEEQNEKEIESDKQVQKDGEQKENDVQKKQKANAFTIQFSSSLSRKHISTTCNAASGNVFLRKGNKPFEHFNSPNFENMMKGVFGIIQNPFENGQPTFPFFKNINSISGIGNVDIPKNFMNDFLNNGNDQNTPISS | 6.14 |  |  |  |  |  |
| ADP70 (protein, bait human Fc-tagged dimer; N-glycosylation sequons mutated in Plasmodium baits) FENAIKKTKNQENNLALLPIKSTEEEKDDIKNGKDIKKEIDNDKENIKTNNAKDHSTYIKSYLNTNVNDGLKYLFIPSHNSFIKKYSVFNQINDGMLLNEKNDVKNNEDYKNVDYKNVNFLQYHFKELSNYNIANSIDILQEKEGHLDFVIIPHYTFLDYYKHLSYNSIYHKSSTYGKCIAVDAFIKKINEAYDKVKSKCNDIKNDLIATIKKLEHPYDINNKNDDSYRYDISEEIDDKSEETDDETEEVEDSIQDTDSNHAPSNKKKNDLMNRAFKKMMDEYNTKKKKLIKCIKNHENDFNKICMDMKNYGTNLFEQLSCYNNNFCNTNGIRYHYDEYIHKLILSVKSKNLNKDLSDMTNILQQSELLLTNLNKKMGSYIYIDTIKFIHKEMKHIFNRIEYHTKIINDKTKIIQDKIKLNIWRTFQKDELLKRILDMSNEYSLFITSDHLRQMLYNTFYSKEKHLNNIFHHLIYVLQMKFNDVPIKMEYFQTYKKNKPLTQ |  | 7.62 | 6.35 | 4530 | 6.6 |  |
| ADP198 (protein, bait human Fc-tagged dimer; N-glycosylation sequons mutated in Plasmodium baits) ENVDTFKCNYAKKKKNGHHIKRHITNDEEKKKEYSFLMLGKENEEENKENKENNQNVNKDNNDNNNNEKKNEEQNHNNEKKQEEVINNNNNNVENKKEEENHNNDKKTDEQNHVNEKKQEGENNKHKKDDTIPPEKKINKENLLEYGTHDKEGHFIPSYKTLTDEILSTNNAMEKASSFLKIACSHVMKLIEFIPESKLSSQYIKVDNKNIYLKDIAVECQNIYFNLEKFSMTLIVFNSKINKFIYSQEK |  |  |  | 5.51 |  | 21.4 |
